{"source": "paper PMC3352918", "about": "“Mechanism of Nucleic Acid Unwinding by SARS-CoV Helicase” (PLoS ONE, 2012)", "binders": {"B1": {"name": "nsp12-H6 (C-terminal hexahistidine containing nsp12, SARS-CoV RNA-dependent RNA polymerase) (enzyme)", "chain": "SADASTFLNRVCGVSAARLTPCGTGTSTDVVYRAFDIYNEKVAGFAKFLKTNCCRFQEKDEEGNLLDSYFVVKRHTMSNYQHEETIYNLVKDCPAVAVHDFFKFRVDGDMVPHISRQRLTKYTMADLVYALRHFDEGNCDTLKEILVTYNCCDDDYFNKKDWYDFVENPDILRVYANLGERVRQSLLKTVQFCDAMRDAGIVGVLTLDNQDLNGNWYDFGDFVQVAPGCGVPIVDSYYSLLMPILTLTRALAAESHMDADLAKPLIKWDLLKYDFTEERLCLFDRYFKYWDQTYHPNCINCLDDRCILHCANFNVLFSTVFPPTSFGPLVRKIFVDGVPFVVSTGYHFRELGVVHNQDVNLHSSRLSFKELLVYAADPAMHAASGNLLLDKRTTCFSVAALTNNVAFQTVKPGNFNKDFYDFAVSKGFFKEGSSVELKHFFFAQDGNAAISDYDYYRYNLPTMCDIRQLLFVVEVVDKYFDCYDGGCINANQVIVNNLDKSAGFPFNKWGKARLYYDSMSYEDQDALFAYTKRNVIPTITQMNLKYAISAKNRARTVAGVSICSTMTNRQFHQKLLKSIAATRGATVVIGTSKFYGGWHNMLKTVYSDVETPHLMGWDYPKCDRAMPNMLRIMASLVLARKHNTCCNLSHRFYRLANECAQVLSEMVMCGGSLYVKPGGTSSGDATTAYANSVFNICQAVTANVNALLSTDGNKIADKYVRNLQHRLYECLYRNRDVDHEFVDEFYAYLRKHFSMMILSDDAVVCYNSNYAAQGLVASIKNFKAVLYYQNNVFMSEAKCWTETDLTKGPHEFCSQHTMLVKQGDDYVYLPYPDPSRILGAGCFVDDIVKTDGTLMIERFVSLAIDAYPLTKHPNQEYADVFHLYLQYIRKLHDELTGHMLDMYSVMLTNDNTSRYWEPEFYEAMYTPHTVLQ", "notes": "also called SARS-CoV polymerase; SARS-CoV RdRp"}}, "target": "T1, GST-nsp13 (Glutathione S-Transferase-tagged nsp13 of SARS-CoV) (SARS-CoV, UniProt P0C6X7 5302-5902)", "T1 construct": "also called SARS-CoV helicase; non-structural protein 13; not shown: GST, N-terminal, kept", "test": "pull-down", "settings": "both partners purified", "data": [{"binder": "B1", "values": [{"measurement": "binding result", "value": "binds"}]}]}
